Variants at the floor of the assay were thinned out.
B1: TPR 5TU (parent)
chain: GGAUCUUCUCGAUCUAACAAAAAAGACAAAUCUGCCACAAAGCUUGAGAGCAUCUUCGGAUGCAGAGGCGGCAGCCUUCGGUGGCGCGAUAGCGCCAACGUUCUCAACUAUGACACGCAAAACGCGUGCUCCGUUGAAUGGAGUUUAUCAUG

Variants of: B1
Assay: polymerase ribozyme fitness, log enrichment relative to wild type (log ratio); higher = more active; in vitro selection for triplet polymerase activity
How it was run: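 Libraries of mutants in each subunit of a heterodimeric triplet polymerase ribozyme were generated by PCR and transcribed. In triplicate, each went through one in vitro selection round: annealing with biotinylated primer, partner subunit and triplets; frozen incubation at −7 °C; gel excision of extended constructs; streptavidin-bead capture; RT-PCR. Fitness, taken from Illumina sequencing of input and output libraries, is the logarithm of a genotype's enrichment over wild-type enrichment, averaged across replicates with inverse-variance weights. The logarithm is base 2, and genotypes needed ≥10 input reads and ≥1 read per output to be kept.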
For GGAUCUUCUCGAUCUAACAUAAAAGACAAAUCUGCCACAAAGCUUGAGAGCAACUUCGGAUGCAGAGGCGGCAGCCUUCGGUGGCGCGAUAGCGCCAACGUUCUCAACUAUGACACGCAGAACGCGUGCUCCGUUGAAUGGAGUUUAUCAUG [A20U U53A A120G], the “polymerase ribozyme fitness (log ratio)” value was -2.23. In the case of GGAUCUUCUCGAUCUAACAUAAAAGACAAAUCUGCCACAAAGCGUAAGAGCAUCUUCGCAUGCAGAGGCGGCAGCCUUCGGUGGCGCGAUAGCGCAAACGUUCUCAACUAUGACCCGCAAAACGCGUGCUCCGUUGAAUGGAGUUUAUCAUG [A20U U44G G46A G59C C96A A115C], the “polymerase ribozyme fitness (log ratio)” value is reported as no more than -4.2. With GGAUCUUCUCGAUCUAACAUAAAAGACAAAUCUGCCACAAAGCUUGAGAGCAUCUUCGGAGGCAGAGGCGGCAGCCUUCGGUGGCGUGAUAGCGUCAACGUUCUCAACUAUGACACGCAAAACGCGUGCUCCGUUGAAUGGAGUUUAUCAUG [A20U U61G C87U C95U] the “polymerase ribozyme fitness (log ratio)” value was -3.33. With GGAUCUUCUCGAUCUAACAUAAAAGACAAAUCUGCCACAAAGCUUGAGAGCAUCAUCGGAUGCAGAGGCGGCAGCCUUCGGUGGAGCGAUAGCGCCAACGUUCUCAACUAUGACACGCAAAACGCGUGCUCCGUUGAAUGGAGUUUAUCAUG [A20U U55A C85A] the “polymerase ribozyme fitness (log ratio)” value was -3.29. For GGAUCUUCUCGAUCUAACAACUAAGACAAAUCUGCCACAAAGCUUGAGAGCAUUUUCGGAUGCAGAGGCGGCGGCCUUCGGUGGCGCGGUAGCGCCAACGUUCUCAACUAUGACACGCAAAACGCGUGCUCCGUUGAAUGGAGUUUAUCAUG [A21C A22U C54U A73G A89G], the “polymerase ribozyme fitness (log ratio)” value was -1.48. In the case of GGAUCUUCUCGAUCUAACAUAAAAGACAAACCUGCCACAAAGCUUGAGCGCAUCUUUGGGUCCAGAGGCGGCAGCCUUCGGUGGCGCGAUAGCGCAAACGUUCUCAACUAUGACACGCAAAACGCGUGCUCCGUUGAAUGGAGUUUAUCAUG [A20U U31C A49C C57U A60G G62C C96A], the “polymerase ribozyme fitness (log ratio)” value is reported as -4.15. For GGAUCUUCUCGAUCUAACAUAAAAGACAAAUCUGCCACAAAGCUUGAGAGCAUCUUCGGAUGCAGAGGCGGCAGCCUUCGGUGGCAGGAUUGCGCCAACGUUCUCAACUAUGACACGAAAAACGCGUGCUCCGUUGAAUGGAGUUUAUCAUG [A20U G86A C87G A91U C118A], the “polymerase ribozyme fitness (log ratio)” value was no more than -4.2. In the case of GGAUCUUCUCGAUCUAACAUAAAAGACAAAUCUGCCACAAAGCUAGAGAGCAUCUUCGGAUGCAGAGGCGGCAGCCUUCGGUGGCGCGAUAGCGCCAACGUUCUCAACUAUGACACGAAAAACGCGUGCUCCGUUGAAUGGAGUUUAUCAUG [A20U U45A C118A], the “polymerase ribozyme fitness (log ratio)” value is reported as -3.82. With GGAUCUUCUCGAUCUAACAACAAGGACAAAUCUGCCACGAAGCUUGAGAGCAUUUUCGGAUGCAGAGGCGGCAGCCUGCGGUGGCGCGAUAGCACCAACGUUCUCAACUAUGACACGCAAAACGCGUGGUCCGGUGAAUUGAGUGUAUCAUG [A21C A24G A39G C54U U78G G94A C129G U134G G140U U145G] the “polymerase ribozyme fitness (log ratio)” value was no more than -4.2. For GGAUCUUCUCGAUCUAACAUAAAAGACAAAGCUGCCACAAAGCUUGAGAGCAUCAUCGGAUGCAGAGGCGGCGGCCUUCGGUGGGGGGAUAGCGCCAACGUUCUCAACUAUGACACGCAAAACGCGUGCUCCGUCGAAUGGAGUUUACCAUG [A20U U31G U55A A73G C85G C87G U135C U148C], the “polymerase ribozyme fitness (log ratio)” value was no more than -4.2. In the case of GGAUCUUCUCGAUCUAACAUAAAAGACAAAUCUGCCACAAAGCUUGAGAGCAUCUUCGGAUGCAGAGGCGGCAGCCUUCGGUUGCGCGAGAGCGCCAAAGUUCUCAUCUAUGACACGCAAAACGCGUGCUCCGUUGAAUGGAGUUUAACAUG [A20U G83U U90G C99A A107U U148A], the “polymerase ribozyme fitness (log ratio)” value is reported as no more than -4.2. With GGAUCUUCUCGAUCUAACAUAAAAGACAAAUCUGCCACAAAGCUUGAGAGCAUCGUCGGAUGCAGAGGCGGCAGCCUUCGGUGGCGCGAUAGGCCCAACGUUCUCAACUAUGACACGCAAAACGCGUGCUCCGUUGAAUGGGGUUUAUCAUG [A20U U55G C93G G94C A142G] the “polymerase ribozyme fitness (log ratio)” value was no more than -4.2. With GGAUCUUCUCGAUCUAACAUAAAAGACAAAUCUGCCACAAAGCUAGAUAGCAUCUUCGGAUGCGGAGGCGGCAGCCUUCGGUGGCGCGAUAGCGCCAACGUUCUCAACUAUGACACGCAAAACGCGUGCUCCGUUGUAUGGAGUUUAUCAUG [A20U U45A G48U A64G A137U] the “polymerase ribozyme fitness (log ratio)” value was no more than -4.2. For GGAUCUUCUCGAUCUAACAUAAAAGACAAAUCUGCCACAAAGCUUGAGAGCAUCUACGGAUGCAGAGGCGGCAGCUUUCGGUGGCGCGAUAGCGCCAACGUUCUCAACUAUGACACGCAAAACGCGUGCUCCAUUGAAUGGAGUUUAUCAUG [A20U U56A C76U G133A], the “polymerase ribozyme fitness (log ratio)” value was no more than -4.2. For GGAUCUUCUCGAUCUAACAUAAAAGACAAAUCUGCCACAAAGCUUGAGAGCAUCUACGGAUGCAGAGGCGGCAGCCUUCGGUGGCGCGAUAGCGCCAACGUUCUCAACUAUGACACGCAAAACGCGUGCUCCGUUGAAUGGAGUUUAUCAUG [A20U U56A], the “polymerase ribozyme fitness (log ratio)” value was -1.87. In the case of GGAUCUUCUCGAUCUAACAACUAAGACAAAUCUGCCACAAAGCUUGAGAGCAUCUUCGGAUGCAGAGGCGGCAGCCUUCGGUGGCUCGAUAGCGCCAACGUCCUCAACUAUGACAUGCAAAGCGCGUGCUCCGUUGAUUGGAGUUUAUCAUG [A21C A22U G86U U102C C116U A122G A138U], the “polymerase ribozyme fitness (log ratio)” value is reported as no more than -4.2. With GGAUCUUCUCGAUCUAACAUAAAAGACAAACCUGCCACAAAGCUUGAGAGCAUCUUCGGAUGCAGAGGCGGCAGCCUUCGGUGGCGCGAUAGCGCCAACGUUCUCAACGAUGACACGCAAAACGCGUGCUCCGUUGAAUGGAGUUUAUCAUG [A20U U31C U109G] the “polymerase ribozyme fitness (log ratio)” value was -0.957. For GGAUCUUCUCGAUCUAACAACAGAGACAAAUCUGCCCCAAAGCUUGAGAGCAUCUUCGGAUGCAGAGGCGGCAGCCUUCGGUGGCGCGAUAGCGGCAACGUUCUCAACUAUGACACGCAAAACGCGUGCUCCGUUGAAUGGAGUUUAUCAUG [A21C A23G A37C C95G], the “polymerase ribozyme fitness (log ratio)” value was no more than -4.2. In the case of GGAUCUUCUCGAUCUAACAUAAAAGACAAAUCUGCCACAAAGCUUGAGAGCAUCUUCGGAAGCAGAGGCGGCAGCCUUCGGUGGCGCGAUAGCGCCAACGUUCUCAACUAUGACACGCAAAACGCGUGCUCCGUUGAAUGGAGUUUAUCAUG [A20U U61A], the “polymerase ribozyme fitness (log ratio)” value is reported as -2.43.
